# Results: patent US20140087426
# Key:
# Experiment in all cases: cell_activity
# [1] = tested on: spexin TALEN right (synthetic (Xanthomonas TALE)); details: 33/36, as pair
# [2] = tested on: tnikb TALEN right (synthetic (Xanthomonas TALE)); details: 18/39, as pair
# [3] = tested on: kiss2 TALEN right (synthetic (Xanthomonas TALE)); details: 69/69, as pair
# [4] = tested on: miR-214 TALEN right (synthetic (Xanthomonas TALE)); details: 25/47, as pair
# [5] = tested on: miR-451 TALEN right (synthetic (Xanthomonas TALE)); details: 2/47, as pair, 22-bp spacer
# [6] = tested on: kiss1 TALEN right (synthetic (Xanthomonas TALE)); details: 32/40, as pair
# [7] = tested on: gria3a TALEN right (synthetic (Xanthomonas TALE)); details: 49/55, as pair, zebrafish embryos
# [8] = tested on: kiss2r TALEN right (synthetic (Xanthomonas TALE)); details: 3/45, as pair, 21-bp spacer
# [9] = tested on: kiss1r TALEN right (synthetic (Xanthomonas TALE)); details: 22/43, as pair
# [10] = tested on: miR-1-1 TALEN right (synthetic (Xanthomonas TALE)); details: 64/66, as pair
# [11] = tested on: miR-1-2 TALEN right (synthetic (Xanthomonas TALE)); details: 34/41, as pair
# [12] = tested on: gnrh3 TALEN right (synthetic (Xanthomonas TALE)); details: 6/33, as pair, 21-bp spacer
# [13] = tested on: kiss2r TALEN left (synthetic (Xanthomonas TALE)); details: 3/45, as pair, 21-bp spacer
# [14] = tested on: kiss1 TALEN left (synthetic (Xanthomonas TALE)); details: 32/40, as pair
# [15] = tested on: miR-1-1 TALEN left (synthetic (Xanthomonas TALE)); details: 64/66, as pair
# [16] = tested on: miR-1-2 TALEN left (synthetic (Xanthomonas TALE)); details: 34/41, as pair
# [17] = tested on: miR-451 TALEN left (synthetic (Xanthomonas TALE)); details: 2/47, as pair, 22-bp spacer
# [18] = tested on: gria3a TALEN left (synthetic (Xanthomonas TALE)); details: mean of 3; with right TALEN, zebrafish embryos; Table 4: 49/55
# [19] = tested on: gria3a TALEN left -A7 (synthetic (Xanthomonas TALE)); details: mean of 3, nearly abolished
# [20] = tested on: gria3a TALEN left -C1 (synthetic (Xanthomonas TALE)); details: mean of 3
# [21] = tested on: gria3a TALEN left -G2 (synthetic (Xanthomonas TALE)); details: mean of 3, nearly abolished
# [22] = tested on: gria3a TALEN left -T15 (synthetic (Xanthomonas TALE)); details: mean of 3
# [23] = tested on: gria3a TALEN left -T8 (synthetic (Xanthomonas TALE)); details: 0/64 in 3
# [24] = tested on: gria3a TALEN left A7C (synthetic (Xanthomonas TALE)); details: mean of 3
# [25] = tested on: gria3a TALEN left A7G (synthetic (Xanthomonas TALE)); details: mean of 3
# [26] = tested on: gria3a TALEN left A7T (synthetic (Xanthomonas TALE)); details: mean of 3
# [27] = tested on: gria3a TALEN left C1A (synthetic (Xanthomonas TALE)); details: mean of 3
# [28] = tested on: gria3a TALEN left C1G (synthetic (Xanthomonas TALE)); details: mean of 3
# [29] = tested on: gria3a TALEN left C1T (synthetic (Xanthomonas TALE)); details: mean of 3
# [30] = tested on: gria3a TALEN left CLRA (synthetic (Xanthomonas TALE)); details: mean of 3
# [31] = tested on: gria3a TALEN left CLRG (synthetic (Xanthomonas TALE)); details: mean of 3
# [32] = tested on: gria3a TALEN left CLRT (synthetic (Xanthomonas TALE)); details: mean of 3
# [33] = tested on: gria3a TALEN left G2A (synthetic (Xanthomonas TALE)); details: mean of 3
# [34] = tested on: gria3a TALEN left G2C (synthetic (Xanthomonas TALE)); details: mean of 3
# [35] = tested on: gria3a TALEN left G2T (synthetic (Xanthomonas TALE)); details: mean of 3
# [36] = tested on: gria3a TALEN left T15A (synthetic (Xanthomonas TALE)); details: mean of 3
# [37] = tested on: gria3a TALEN left T15C (synthetic (Xanthomonas TALE)); details: mean of 3
# [38] = tested on: gria3a TALEN left T15G (synthetic (Xanthomonas TALE)); details: mean of 3
# [39] = tested on: gria3a TALEN left T8A (synthetic (Xanthomonas TALE)); details: 0/32 in 3
# [40] = tested on: gria3a TALEN left T8C (synthetic (Xanthomonas TALE)); details: mean of 3
# [41] = tested on: gria3a TALEN left T8G (synthetic (Xanthomonas TALE)); details: mean of 3
# [42] = tested on: kiss2 TALEN left (synthetic (Xanthomonas TALE)); details: 69/69, as pair
# [43] = tested on: miR-214 TALEN left (synthetic (Xanthomonas TALE)); details: 25/47, as pair
# [44] = tested on: tnikb TALEN left (synthetic (Xanthomonas TALE)); details: 18/39, as pair
# [45] = tested on: gnrh3 TALEN left (synthetic (Xanthomonas TALE)); details: 6/33, as pair, 21-bp spacer
# [46] = tested on: kiss1r TALEN left (synthetic (Xanthomonas TALE)); details: 22/43, as pair
# [47] = tested on: spexin TALEN left (synthetic (Xanthomonas TALE)); details: 33/36, as pair
sequence,measurement,setting,value
AATGTCATGCAATGTTA (double strand) [spexin right site],activity (% mutant alleles),[1],91.7
ATTTTTGAGCTGGTGGA (double strand) [tnikb right site],activity (% mutant alleles),[2],46.2
CAGCTATGAGAGCAATA (double strand) [kiss2 right site],activity (% mutant alleles),[3],100
CAGGCAGACAGATGGCA (double strand) [miR-214 right site],activity (% mutant alleles),[4],53.2
CTGAGTTTAGTAATGGA (double strand) [miR-451 right site],activity (% mutant alleles),[5],4.3
CTTAGAAGGTAAGTTCA (double strand) [kiss1 right site],activity (% mutant alleles),[6],80
GAGTTTCTGCTCTTTA (double strand) [gria3a right site],activity (% mutant alleles),[7],89.1
GATGAAGACGGTTACAAA (double strand) [kiss2r right site],activity (% mutant alleles),[8],6.7
GTAATAATAGAACCTCA (double strand) [kiss1r right site],activity (% mutant alleles),[9],51.2
GTATGTATCCCAGGTGA (double strand) [miR-1-1 right site],activity (% mutant alleles),[10],97
GTATGTATTCTTGGTCA (double strand) [miR-1-2 right site],activity (% mutant alleles),[11],82.9
GTCCAGTTGTTGCTGTTA (double strand) [gnrh3 right site],activity (% mutant alleles),[12],18.2
TAACCTAATAGTCATCTA (double strand) [kiss2r left site],activity (% mutant alleles),[13],6.7
TACACACAAACCCCTCT (double strand) [kiss1 left site],activity (% mutant alleles),[14],80
TATGAACAAGAGCAGC (double strand) [miR-1-1 left site],activity (% mutant alleles),[15],97
TATGAACATATAAAAGC (double strand) [miR-1-2 left site],activity (% mutant alleles),[16],82.9
TCGCTGTGACAGAGAGA (double strand) [miR-451 left site],activity (% mutant alleles),[17],4.3
TCGTCCAATAGCTTCTC (double strand) [gria3a left site],activity (% mutant alleles),[18],84.2
same,activity (% mutant alleles),[19],0.5
same,activity (% mutant alleles),[20],30.7
same,activity (% mutant alleles),[21],1.6
same,activity (% mutant alleles),[22],71.9
same,activity (% mutant alleles),[23],0
same,activity (% mutant alleles),[24],40.1
same,activity (% mutant alleles),[25],82.3
same,activity (% mutant alleles),[26],71.9
same,activity (% mutant alleles),[27],33.3
same,activity (% mutant alleles),[28],79.2
same,activity (% mutant alleles),[29],2.1
same,activity (% mutant alleles),[30],76
same,activity (% mutant alleles),[31],2.2
same,activity (% mutant alleles),[32],63.1
same,activity (% mutant alleles),[33],17.9
same,activity (% mutant alleles),[34],12.1
same,activity (% mutant alleles),[35],52.6
same,activity (% mutant alleles),[36],20.8
same,activity (% mutant alleles),[37],3.1
same,activity (% mutant alleles),[38],65.6
same,activity (% mutant alleles),[39],0
same,activity (% mutant alleles),[40],21.9
same,activity (% mutant alleles),[41],14.6
TGATTCTCTTCATGTCTG (double strand) [kiss2 left site],activity (% mutant alleles),[42],100
TGCAGAACTTCCTGCAC (double strand) [miR-214 left site],activity (% mutant alleles),[43],53.2
TGTTATTTTCTCCCCT (double strand) [tnikb left site],activity (% mutant alleles),[44],46.2
TGTTTTAGTTTTAGCATG (double strand) [gnrh3 left site],activity (% mutant alleles),[45],18.2
TTCATGTGCAAATTTGT (double strand) [kiss1r left site],activity (% mutant alleles),[46],51.2
TTTGTGTCCCATTCCT (double strand) [spexin left site],activity (% mutant alleles),[47],91.7
